Results: patent US6429014B1, “Monoterpene synthases from grand fir (Abies grandis)” (Washington State University Research Foundation, priority 1997, dated 2002)

Assay: Monoterpene synthase assay and product identification with extracts of E. coli expressing Grand fir cDNA clones (Example 3)
Format: biochemical
Protocol: For expression, bacterial strains E. coil XLOLR/pAG3.18, E. coil XLOLR/pAG3.48, E. coli XL1-Blue/pGAG2.2, E. coli XL1-Blue/pGAG3.18, and E. coil BL21(DE3)/pSBAG10were grown to A600=0.5 at 37° C. in 5 ml of LB medium (Sambrock, J., Fritsch, E. F., and Maniatis, T. (1989) Molecular Cloning: A Laboratory Manual, 2d Ed., Cold Spring Harbor Laboratory, Cold Spring Harbor, N.Y.) supplemented with 100 μg ampicillin/ml or 30 μg kanamycin/ml as determined by the vector. Cultures were then induced by addition of 1 mM isopropyl-1-thio-β-D-galactopyranoside and grown for another 12 h at 20° C. Cells were harvested by centrifugation (2000×g, 10 min) and resuspended in either 1 ml monoterpene synthase assay buffer [50 mM Tris/HCl (pH 7.5), 500 mM KCl, 1 mM MnCl2, 5 mM dithiothreitol, 0.05% (w/v) NaHSO3 and 10% (v/v) glycerol], 1 ml sesquiterpene synthase assay buffer [10 mM dibasic potassium phosphate, 1.8 mM monobasic potassium phosphate (pH 7.3), 140 mM NaCl, 10 mM MgCl2, 5 mM dithiothreitol, 0.05% (w/v) NaHSO3 and 10% (v/v) glycerol], or 1 ml diterpene synthase assay buffer [30 mM Hepes (N-2-hydroxyethylpiperazine-N-′2-ethanesulfonic acid, pH 7.2), 7.5 mM MgCl2, 5 mM dithiothreitol, 10 µM MnCl2, 0.05% (w/v) NaHSO3 and 10% (v/v) glycerol].
Cells were disrupted by sonication (Braun-Sonic 2000 with microprobe at maximum power for 15 seconds at 0-4° C.), the homogenates were cleared by centrifugation (18,000×g, 10 min), and 1 ml of the resulting supernatant was assayed for monoterpene synthase activity with 2.5 μM of [1-^3H]geranyl diphosphate, for sesquiterpene synthase activity with 3.5 μM [1-^3H]farnesyl diphosphate, or for diterpene synthase activity with 5 μM [1- ^3H]geranylgeranyl diphosphate following standard protocols (Croteau, R., and Cane, D. E. (1985) Methods Enzymol. 110:383-405; LaFever, R. E., Stofer Vogel, B., and Croteau, R. (1994) Arch. Biochem. Biophys. 313:139-149; Dehal, S. S., and Croteau, R. (1988) Arch. Biochem. Biophys. 261:346-356). In the case of the monoterpene synthase and sesquiterpene synthase assays, the incubation mixture was overlaid with 1 ml pentane to trap volatile products. In all cases, after incubation at 31° C. for 2 h, the reaction mixture was extracted with pentane (3×1 ml) and the combined extract was passed through a 1.5 ml column of anhydrous MgSO4 and silica gel (Mallinckrodt 60 Å) to provide the terpene hydrocarbon fraction free of oxygenated metabolites. The columns were subsequently eluted with 3×1 ml of ether to collect any oxygenated products, and an aliquot of each fraction was taken for liquid scintillation counting to determine conversion rate.
Product Identification—To obtain sufficient product for analysis by radio-GLC (gas liquid chromatography), chiral capillary GLC and GLC-MS (mass spectrum/spectrometry), preparative-scale enzyme incubations were carried out. Thus, the enzyme was prepared from 50 ml of cultured bacterial cells by extraction with 3 ml of assay buffer as above, and the extracts were incubated with excess substrate overnight at 31° C. The hydrocarbon fraction was isolated by elution through MgSO4-silica gel as before, and the pentane eluate was concentrated for evaluation by capillary radio-GLC as described (Croteau, R., and Satterwhite, D. M. (1990) J. Chromatogr. 500:349-354), by chiral column capillary GLC (Lewinsohn, E., Savage, T. J., Gijzen, M., and Croteau, R. (1993) Phytochem. Anal. 4:220-225), and by combined GLC-MS [Hewlett-Packard 6890 GC-MSD with cool (40° C.) on-column injection, detection via electron impact ionization (70 eV), He carrier at 0.7 psi., column:0.25 mm i.d.×30 m fused silica with 0.25 μm film of 5MS (Hewlett-Packard) programmed from 35° C. (5 min hold) to 230° C. at 5° C./min].

B1: AG3.18: recombinant (−)-pinene synthase from Grand fir encoded by cDNA clone AG3.18 (SEQ ID NO:3; protein SEQ ID NO:4) (protein, listed as Abies grandis)
chain: MALVSTAPLASKSCLHKSLISSTHELKALSRTIPALGMSRRGKSITPSISMSSTTVVTDDGVRRRMGDFHSNLWDDDVIQSLPTAYEEKSYLERAEKLIGEVKNMFNSMSLEDGELMSPLNDLIQRLWIVDSLERLGIHRHFKDEIKSALDYVYSYWGENGIGCGRESVVTDLNSTALGLRTLRLHGYPVSSDVFKAFKGQNGQFSCSENIQTDEEIRGVLNLFRASLIAFPGEKIMDEAEIFSTKYLKEALQKIPVSSLSREIGDVLEYGWHTYLPRLEARNYIQVFGQDTENTKSYVKSKKLLELAKLEFNIFQSLQKRELESLVRWWKESGFPEMTFCRHRHVEYYTLASCIAFEPQHSGFRLGFAKTCHLITVLDDMYDTFGTVDELELFTATMKRWDPSSIDCLPEYMKGVYIAVYDTVNEMAREAEEAQGRDTLTYAREAWEAYIDSYMQEARWIATGYLPSFDEYYENGKVSCGHRISALQPILTMDIPFPDHILKEVDFPSKLNDLACAILRLRGDTRCYKADRARGEEASSISCYMKDNPGVSEEDALDHINAMISDVIKGLNWELLKPDINVPISAKKHAFDIARAFHYGYKYRDGYSVANVETKSLVTRTLLESVPL
cell-free extract of induced E. coli, tritium labeled substrates
  prenyl diphosphate substrate utilized (geranyl, farnesyl, geranylgeranyl diphosphate tested): only geranyl diphosphate was utilized
cell-free extracts of E. coli
  α-pinene share of product mixture from geranyl diphosphate: 42%
  β-pinene share of product mixture from geranyl diphosphate: 58%
radio-GLC, GLC-MS, chiral GLC
  monoterpene products formed from geranyl diphosphate: No other monoterpene co-products were detected
